One test addresses T1, procaspase-9 (Homo sapiens, UniProt P55211).
T1 construct: using neutrophil cytosol containing all the apoptosome components, i.e., procaspase-9; endogenous in cells; host or cells: neutrophil cytosol (primary neutrophils)
T1 sequence (P55211 1-416): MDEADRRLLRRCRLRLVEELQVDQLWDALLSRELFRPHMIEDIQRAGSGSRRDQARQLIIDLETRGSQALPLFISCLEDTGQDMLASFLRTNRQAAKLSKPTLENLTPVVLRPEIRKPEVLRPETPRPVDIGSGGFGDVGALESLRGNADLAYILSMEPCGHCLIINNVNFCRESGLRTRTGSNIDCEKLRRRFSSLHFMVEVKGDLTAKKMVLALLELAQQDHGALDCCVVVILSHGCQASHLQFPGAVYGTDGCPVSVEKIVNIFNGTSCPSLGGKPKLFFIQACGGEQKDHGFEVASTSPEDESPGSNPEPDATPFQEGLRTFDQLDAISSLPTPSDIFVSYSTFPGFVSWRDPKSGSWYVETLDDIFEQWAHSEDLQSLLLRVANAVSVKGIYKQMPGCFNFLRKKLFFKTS
As to the kind of experiment: In vitro procaspase-9 activation assay using neutrophil cytosol, cytochrome c and dATP. More on the design: dose or concentration left out as unconfirmed. In kind it is biochemical.

The subject of test [1] is neutrophils. As to the kind of experiment: Neutrophil apoptosis/survival by phosphatidylserine externalization after annexin-V and 7-AAD labeling. In kind it is cell-based, human. The conditions noted are these: G-CSF 200 or 1000 U/ml, 15 h at 37° C. The protocol:
Analysis of apoptosis. Neutrophil apoptosis was triggered by incubating neutrophils at 37° C. alone (constitutive apoptosis) or with anti-Fas mAb (10 ng/ml; Beckman-Coulter) or gliotoxin ([…]; Sigma) (Ward et al. 1999, J. Biol. Chem. 274:4309-4318) for the indicated times. Neutrophil apoptosis was evaluated by phosphatidylserine externalization after annexin-V and 7-AAD labeling (Kantari et al. 2007, Blood 110:4086-4095); mitochondrial depolarization after DiOC6 labeling (Moriceau et al. 2009, J. Immuno1.182:7254-7263); caspase-3 and caspase-8 activities measured by spectrophotometry (Biovision) in neutrophil lysates. In DMF-differentiated-PLB985 cells, apoptosis was triggered by gliotoxin or by rTRAIL (10 ng/ml; RD System) (Yin et al. 2005, Int. J. Biochem. Cell Biol. 37:1696-1708) and caspase-8 and caspase-9 activities were determined after gating on CD11b^+ cells using the Caspase-Glow® assay (Promega). Apoptosis-induced chromatin condensation and DNA fragmentation were assessed, respectively, after DNA staining with the blue fluorescent dye Hoechst (5 mg/ml) and propidium-iodide staining (Goepel et al. 2004, J. Leukoc. Biol. 75:836-843). Carboxyp21 ([…], SEQ ID NO: 24) corresponding to the p21 carboxy-terminus sequence (residues 141-160) and containing a RYIRS carboxy-terminal extension to facilitate its cell entry was synthesized and purified (Genecust). […]

For the next test, the system named is PCNA. Kind of test: PCNA expression in neutrophils by Western blot. Type of test: cell-based, human. As to conditions: G-CSF 1000 U/ml, 6 h to 15 h. The protocol:
Western blot analysis and co-immunoprecipitation experiments. Neutrophils were sonicated and cytosolic proteins were analyzed using either the PC10 mAb or the Ab5 pAb anti-PCNA according to standard immunoblot procedures (Moriceau et al. 2009, J. Immunol. 182:7254-7263). Co-immunoprecipitation experiments were performed using neutrophil cytosols obtained by cavitation (Witko-Sarsat et al. 1999, Blood 94:2487-2496). Cytosol ([…]) was mixed with […] of protein G and Ab5 pAb and incubated for 30 min at 4° C. under shaking. The sample was loaded onto a column containing Sepharose-coated magnetic beads (Milteny), washed with a stringent washing buffer (50 mM Tris, 500 mM NaCl, 1% NP-40, 0.5% Triton X-100). […] The sample was eluted from the column with […] 5× sample buffer and analyzed by Western blotting using different mAb to potential partners. PCNA was detected on the Western blot with the PC10 mAb and procaspases were detected with either anti-procaspase-8 (Calbiochem) mAb or mouse anti-procaspase-10 (Santa Cruz) or anti-procaspase-9 (Santa Cruz) or anti-procaspase-3 (Santa Cruz) mAbs, followed by horseradish peroxidase-conjugated anti-mouse IgG (Nordic Immunology diluted 1:5000), using the SuperSignal West Pico detection kit (Pierce).
(Immunoblotting shows a protein as a band on a membrane.)

The test system of test [2] is neutrophils. As to the kind of experiment: Neutrophils isolated from G-CSF-treated healthy donors: PCNA content and constitutive apoptosis. In kind it is in vivo, human. The protocol:
Neutrophil isolation, granulocytic differentiation of CD34^+ precursors and cell culture. Human neutrophils from healthy (Etablissement Francais du Sang, Paris) or G-CSF-treated healthy donors ([…] for 5 days to induce hematopoietic stem cells mobilization) (Biotherapy Department, Necker Hospital, France) were isolated from EDTA-anticoagulated blood, using density-gradient centrifugation through polymorphoprep (Nycomed), as described in Witko-Sarsat et al. (1999, Blood 94:2487-2496). […]
Western blot analysis and co-immunoprecipitation experiments. Neutrophils were sonicated and cytosolic proteins were analyzed using either the PC10 mAb or the Ab5 pAb anti-PCNA according to standard immunoblot procedures (Moriceau et al. 2009, J. Immunol. 182:7254-7263). […] The sample was eluted from the column with […] 5× sample buffer and analyzed by Western blotting using different mAb to potential partners. PCNA was detected on the Western blot with the PC10 mAb and procaspases were detected with either anti-procaspase-8 (Calbiochem) mAb or mouse anti-procaspase-10 (Santa Cruz) or anti-procaspase-9 (Santa Cruz) or anti-procaspase-3 (Santa Cruz) mAbs, followed by horseradish peroxidase-conjugated anti-mouse IgG (Nordic Immunology diluted 1:5000), using the SuperSignal West Pico detection kit (Pierce).

Description for procaspase-9: That hypothesis was tested by evaluating procaspase-9 cleavage in an in vitro assay, using neutrophil cytosol containing all the apoptosome components, i.e., procaspase-9 and apoptotic protease-activating factor-1 (Apaf-1) as previously described (McStay et al. 2008; Cell Death Differ. 15:322-331).

B1: Ovalbumin: control protein tested at the same concentration (protein, UniProt P01012 2-386, looked up)
Ovalbumin: GSIGAASMEFCFDVFKELKVHHANENIFYCPIAIMSALAMVYLGAKDSTRTQINKVVRFDKLPGFGDSIEAQCGTSVNVHSSLRDILNQITKPNDVYSFSLASRLYAEERYPILPEYLQCVKELYRGGLEPINFQTAADQARELINSWVESQTNGIIRNVLQPSSVDSQTAMVLVNAIVFKGLWEKAFKDEDTQAMPFRVTEQESKPVQMMYQIGLFRVASMASEKMKILELPFASGTMSMLVLLPDEVSGLEQLESIINFEKLTEWTSSNVMEERKIKVYLPRMKMEEKYNLTSVLMAMGITDVFSSSANLSGISSAESLKISQAVHAAHAEINEAGREVVGSAEAGVDAASVSEEFRADHPFLFCIKHIATNAVLFFGRCVSP
B1: the “Procaspase-9 cleavage / activation” value in the test with procaspase-9 is reported as “did not affect pro-caspase 9 activation”.

B2: G-CSF: survival factor extending neutrophil longevity (protein, UniProt P09919 31-207, looked up)
Granulocyte …: TPLGPASSLPQSFLLKCLEQVRKIQGDGAALQEKLVSECATYKLCHPEELVLLGHSLGIPWAPLSSCPSQALQLAGCLSQLHSGLFLYQGLLQALEGISPELGPTLDTLQLDVADFATTIWQQMEELGMAPALQPTQGAMPAFASAFQRRAGGVLVASHLQSFLEVSYRVLRHLAQP
Take B2: the “Neutrophil survival (annexin-V− 7-AAD− cells)” value in the test on neutrophils [1] is “prolonged neutrophil survival”. The “Effect on decrease of PCNA expression during incubation at 37° C.” value in the test on PCNA is “totally prevented”. Besides, the “PCNA content of neutrophils from treated donors (immunoblotting)” value in the test with neutrophils [2] (healthy donors treated with G-CSF for 5 days, compared to before treatment) was “markedly increased”. The “Constitutive apoptosis of neutrophils from treated donors” value with neutrophils [2] (healthy donors treated with G-CSF, 15-h culture) is “decreased tendency of these neutrophils to undergo constitutive apoptosis”.

(Values after patent US20130059773A1, “COMPOUNDS FOR THE TREATMENT OF INFLAMMATION AND NEUTROPENIA” (priority 2010, published 2013).)
